Three molecules from PMC9245421, “The VvWRKY37 Regulates Bud Break in Grape Vine Through ABA-Mediated Signaling Pathways” can be followed below.

Substitutions are numbered along the chain they refer to.

Series [1] addresses T1, VvABF2-HIS (grape vine, UniProt F6H1D1 1-447).
T1 sequence: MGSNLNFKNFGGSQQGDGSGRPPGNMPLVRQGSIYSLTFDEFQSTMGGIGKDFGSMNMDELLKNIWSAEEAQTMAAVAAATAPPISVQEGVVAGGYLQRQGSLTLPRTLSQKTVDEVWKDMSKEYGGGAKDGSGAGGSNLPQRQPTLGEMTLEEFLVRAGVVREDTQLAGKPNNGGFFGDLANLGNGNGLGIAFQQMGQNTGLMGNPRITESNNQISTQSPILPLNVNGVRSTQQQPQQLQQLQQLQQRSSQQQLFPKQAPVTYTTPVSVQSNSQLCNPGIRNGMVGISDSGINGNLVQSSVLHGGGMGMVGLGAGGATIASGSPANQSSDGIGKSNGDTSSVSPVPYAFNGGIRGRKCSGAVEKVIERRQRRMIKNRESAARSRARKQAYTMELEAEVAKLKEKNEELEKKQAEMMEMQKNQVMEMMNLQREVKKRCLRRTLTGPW
Description: competition; 100-fold unlabeled vs W37-P2; EMSA: 2 ul of 5x buffer (50% glycerol, 50 mM MgCl2, 5 mM EDTA, 10 mM DTT, 500 mM KCl, 250 mM HEPES pH 7.4) in 10 ul, i.e. 1x = 10% glycerol, 10 mM MgCl2, 1 mM EDTA, 2 mM DTT, 100 mM KCl, 50 mM HEPES; 1 ul of 0.05 uM biotin probe; 24 C, 20 min; 6% native gel, 0.5x TBE. Conditions: protein: recombinant; tags: His (pET32a); blunt.

For series [2], the target named is T2, VvABI5-HIS (grape vine, UniProt F6HQA3 1-409).
T2 sequence: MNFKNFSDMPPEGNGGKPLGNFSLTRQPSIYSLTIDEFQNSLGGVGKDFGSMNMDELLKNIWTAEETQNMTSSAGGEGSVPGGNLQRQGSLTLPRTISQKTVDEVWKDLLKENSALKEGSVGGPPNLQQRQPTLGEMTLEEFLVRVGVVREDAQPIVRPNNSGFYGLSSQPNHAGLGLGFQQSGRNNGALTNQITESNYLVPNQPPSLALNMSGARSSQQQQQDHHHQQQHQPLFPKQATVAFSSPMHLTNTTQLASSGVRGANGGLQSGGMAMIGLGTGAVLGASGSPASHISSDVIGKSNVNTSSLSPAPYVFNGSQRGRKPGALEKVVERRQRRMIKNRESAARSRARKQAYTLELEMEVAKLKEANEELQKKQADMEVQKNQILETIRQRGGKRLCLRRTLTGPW
The series is described as above. As to conditions: protein: recombinant; tags: His (pET32a); blunt.

Series [3] has as its target T1, VvABF2-HIS. Description: EMSA; EMSA: 2 ul of 5x buffer (50% glycerol, 50 mM MgCl2, 5 mM EDTA, 10 mM DTT, 500 mM KCl, 250 mM HEPES pH 7.4) in 10 ul, i.e. 1x = 10% glycerol, 10 mM MgCl2, 1 mM EDTA, 2 mM DTT, 100 mM KCl, 50 mM HEPES; 1 ul of 0.05 uM biotin probe; 24 C, 20 min; 6% native gel, 0.5x TBE. As to conditions: protein: recombinant; tags: His (pET32a); label: biotin; blunt. For orientation: A gel shift assay detects complexes by their altered migration in electrophoresis.

In series [4] the target is T2, VvABI5-HIS. The series is described as above. Conditions: protein: recombinant; tags: His (pET32a); label: biotin; blunt.

B1: W37-mP2 (dsDNA)
DNA 1: TCCAAATGCTTTAACATGATTTCATTTGTT
DNA 2: AACAAATGAAATCATGTTAAAGCATTTGGA
As to B1, the binding result with VvABF2-HIS [1] and with VvABI5-HIS [2] was “no binding” in each case.

B2: W37-P2 (dsDNA)
DNA 1: B1 DNA 1 with A13C, A16G, G18A
DNA 2: B1 DNA 2 with C13T, T15C, T18G
As for B2, the binding result in the series with VvABF2-HIS [3] and in the series with VvABI5-HIS [4] was “binds” throughout.

B3: W37-P1 (dsDNA)
DNA 1: CTCTCTCCCACGTGCCGACCTCACACGTGTTAGCCTCAT
DNA 2: ATGAGGCTAACACGTGTGAGGTCGGCACGTGGGAGAGAG
With B3, the binding result with VvABF2-HIS [3] and with VvABI5-HIS [4] was “no binding” in each case.
